Experimental data published in patent US20050123549A1 (IMMUNOGEN, published 2005).

Tests used:
[1] = biological target: T1, Muc1 mucin carrying the CA6 sialoglycotope (human, UniProt P15941 24-1255, sialylated O-linked carbohydrate carrying the CA6 epitope; positions not stated); test: flow cytometry on BT-483 cells, apparent Kd
T1 construct: whole, on cells; Target of DS6 on CA6-positive human cell lines (flow cytometry) and in their lysates (dot blots, immunoprecipitation); also called CA6 antigen; DS6 antigen
Description: (§1) Cells ([…]) were incubated, on ice for 3-4 h, with serially diluted concentrations of the DS6 antibody prepared in FACS buffer (2% goat serum, RPMI) into 96-well plates. The cells were spun down in a table top centrifuge at 1500 rpm for 5 min at 4° C. After removing the media, the wells were then refilled with 150 μl of FACS buffer. The wash step was then repeated. FITC-labeled goat anti-mouse IgG (Jackson Immunoresearch) was diluted 1:100 to FACS buffer and incubated with the cells for 1 h on ice. The plate was covered in foil to prevent photobleaching of the signal. After two washes, the cells were fixed with 1% formaldehyde and analyzed on a flow cytometer.

[2] = biological target: T1, Muc1 mucin carrying the CA6 …; test: cell-based or functional assay
[3] = biological target: T1, Muc1 mucin carrying the CA6 …; test: flow cytometry on ZR-75-1 cells, apparent Kd
Description: (§2) Human cell lines were obtained from the American Type Culture Collection (ATCC) with the exception of OVCAR5 (Kearse et al., Int. J. Cancer 88(6):866-872 (2000)), OVCAR8 and IGROV1 cells (M. Seiden, Massachusetts General Hospital). All cells were grown in RPMI 1640 supplemented with 4 mM L-glutamine, 50 U/ml penicillin, 50 μg/ml streptomycin (Cambrex Bio Science, Rockland, Me.) and 10% v/v fetal bovine serum (Atlas Biologicals, Fort Collins, Colo.), referred hereafter as culture media. Cells were maintained in a 37° C., 5% CO₂ humidified incubator.
as §1

[4] = biological target: T1, Muc1 mucin carrying the CA6 …; test: flow cytometry on HeLa cells, apparent Kd
[5] = biological target: T1, Muc1 mucin carrying the CA6 …; test: flow cytometry on Caov-3 cells, FITC anti-mouse IgG
Description: The fluorescence of cell lines incubated with the DS6 primary antibody and FITC conjugated anti-mouse IgG(H+L) secondary antibodies was measured by flow cytometry.
as §1

[6] = biological target: T1, Muc1 mucin carrying the CA6 …; test: flow cytometry on WISH cells, apparent Kd
[7] = biological target: T1, Muc1 mucin carrying the CA6 …; test: flow cytometry on Caov-4 cells, apparent Kd
Description: as §1

[8] = biological target: T1, Muc1 mucin carrying the CA6 …; test: flow cytometry on KB cells, apparent Kd
[9] = biological target: T1, Muc1 mucin carrying the CA6 …; test: flow cytometry on T-47D cells, apparent Kd
Description: as §2, §1

[10] = biological target: T1, Muc1 mucin carrying the CA6 …; test: flow cytometry on CAMA-1 cells, apparent Kd
Description: as §2, §1

[11] = biological target: T1, Muc1 mucin carrying the CA6 …; test: competition flow cytometry on WISH cells; competitor 2 nM biotin-muDS6, streptavidin-DTAF
Description: To confirm that the huDS6 versions retains the affinity of muDS6, competitive binding experiments were conducted. […] In some cases, the experimentally measured apparent Kd can vary simply because of the secondary reagent used to indirectly detect binding.

[12] = biological target: T1, Muc1 mucin carrying the CA6 …; test: flow cytometry on KB cells, apparent Kd; remark: listed apart in the source
[13] = biological target: T1, Muc1 mucin carrying the CA6 …; test: flow cytometry on Caov-3 cells
[14] = biological target: T1, Muc1 mucin carrying the CA6 …; test: flow cytometry on BT-20 cells, apparent Kd
Description: as §2, §1

[15] = biological target: T1, Muc1 mucin carrying the CA6 …; test: flow cytometry on HeLa cells, apparent Kd; remark: listed apart in the source
[16] = biological target: T1, Muc1 mucin carrying the CA6 …; test: flow cytometry on MCF7 cells, apparent Kd
[17] = biological target: T1, Muc1 mucin carrying the CA6 …; test: flow cytometry on Hs766T cells, apparent Kd
[18] = biological target: T1, Muc1 mucin carrying the CA6 …; test: flow cytometry on Caov-3 cells, apparent Kd
[19] = biological target: T1, Muc1 mucin carrying the CA6 …; test: flow cytometry on MDA-MB-231 cells, apparent Kd
Description: as §2, §1

[20] = biological target: T1, Muc1 mucin carrying the CA6 …; test: flow cytometry on T-47D cells, apparent Kd; remark: listed apart in the source
Description: as §1

Kd [1]: 13.7 nM | Kd [3]: 4.3 nM | Kd [4]: 0.694 nM | Kd [5]: 1.85 nM | Kd [6]: 2.38 nM | Kd [7]: 4.04 nM | Kd [8]: 1.11 nM | Kd [9]: 3.42 nM | Kd [10]: 2.33 nM | EC50 [11]: 12.2 nM | Kd [12]: 1.11 nM | Kd [13]: 2.02 nM | Kd [14]: 0.914 nM | Kd [15]: 0.694 nM | Kd [16]: 2.89 nM | Kd [17]: 2.32 nM | Kd [18]: 5.48 nM | Kd [19]: 1.46 nM | Kd [20]: 3.42 nM
B1: murine DS6 anti-CA6 monoclonal antibody (antibody, IgG1, V domains shown)
VH: QAYLQQSGAELVRSGASVKMSCKASGYTFTSYNMHWVKQTPGQGLEWIGYIYPGNGATNYNQKFKGKATLTADPSSSTAYMQISSLTSEDSAVYFCARGDSVPFAYWGQGTLVTVSA
VL: QIVLTQSPAIMSASPGEKVTITCSAHSSVSFMHWFQQKPGTSPKLWIYSTSSLASGVPARFGGSGSGTSYSLTISRMEAEDAATYYCQQRSSFPLTFGAGTKLELKR
notes: Whole murine monoclonal IgG from the DS6 hybridoma (ATCC PTA-4449); the 3' heavy chain cloning primer was BamIgG1 and the light chain primer was kappa; also called DS6 antibody; muDS6
indirect cell viability assay, DS6 with anti-mouse IgG (H+L) DM1 conjugate, Caov-3 cells, IC50 [2]: 0.425 nM
